Assay results reported in publication PMC9307851.

Molecular target: DNMT3B MTase domain (residues 569-853), R670Q (human) (UniProt Q9UBC3)

How did the in vitro DNA methylation efficiency of the DNMT3B-DNMT3B complex on CpG DNA, reduction against WT turn out when “DNMT3B MTase domain (residues 569-853), R670Q (from UniProt Q9UBC3-1 569-853) (domain or fragment)” was run?
The in vitro DNA methylation efficiency of the DNMT3B-DNMT3B complex on CpG DNA, reduction against WT was 3 fold.
